Assay: soluble on expression in E. coli; label from the status in PepcDB or PDB records

Sequence | soluble on expression in E. coli
MHDNTIKSISKDYFDYLQTESKFIPLENETIEFYSPIVDYFGDSISVNISFSGDRYKLTDHGETLWNMEQLGIDLTSNKKQKKYQLLNNIVQNYSLVIENKHINFYTNRINLSQAIHDYVLAISEISYLGILKKENIKSLFKDEVMQYFLSNRKIYPNIFPEFKVEGKSKLIHSFEAVFPGEATEYVKTIKRIDKNNAKNVLFDWNDVEIHRNKNFDSNARLNIITEQQDDISEAVSTMLSQYNVEVFSFENKKQLEEKFSNV | not soluble
MEKIKNTCKIWEYIYTISRDRLYQKIPKEEFLRLSTSDKEYLEAIKNLNNPKISELARDMGYTKTAVTTMVQKLEKNGYLKKIKSKEDKREINVELTDKGRYIFELKEEVYEYTIKRIKEVLTPQELGAFKAILEKIAKEFDQELGKIYEKNENIDKSDGPPII | not soluble
MGSDKIHHHHHHMNDIKMIRIGITGGTGFLGNRLVELLSKTNTPITCLTRESSNIETIEDKVKVIKGDLSNLESLEDFVKGQDVIVHLAAQVSRTTKKEYYQSNVLGTENLCKAINQYNPECRLINCSSIAAYRIKGWCKLQFTDYAKSKLSADRVVDSYMKTIKATTIIPGIIYGAGNNAFISAIIENLEKGKLFFAKGGEKFAPLSYIDDLCDLFIRAIYNEESVGNKYFGIKYSERGIHDFIRIIASKTYNKAPDAVLSKNKLMAKAVFWQFVYSFFKIKKAPTLSIRMVDIMSINYSLSEEQRTNNLGWEPSVDMEEGVDNALLSYNLKKDSTNRS | not soluble
GMTNVGRPIETHAITVGQGSDARSIAALVRAPAQDERPTCIWLGGYRSDMTGTKALEMDDLAASLGVGAIRFDYSGHGASGGAFRDGTISRWLEEALAVLDHFKPEKAILVGSSMGGWIALRLIQELKARHDNPTQVSGMVLIAPAPDFTSDLIEPLLGDRERAELAENGYFEEVSEYSPEPNIFTRALMEDGRANRVMAGMIDTGCPVHILQGMADPDVPYQHALKLVEHLPADDVVLTLVRDGDHRLSRPQDIDRMRNAIRAMIEPRP | soluble
MGSDKIHHHHHHMSCLVLPLVSVGNIPQLSIDWLLNSQANEWEYLEALDSKYLVEFVGPLDRPEDGSDSLYKDADMKYSSALEVFYNKKRGLFAIQQRTPLVSVNYLNNFIVEIILPFLSKYNISEICIWDSLYAMEDENGVIVRPQEVYSLGEFYFDDEAELLSNLHLNDQESMVNNWLHFTPTSFQDKISVDQPIFKILFQILNASQRPKALRSIKYCSCLANEGDNSLDSQQFLQWIISQKVIKNAPPIVKFVRPISWQGAYGMADARDKFVDLYN | not soluble
ATFSKLLYRHRQFYTQFPWVEDKIREVCHHLDVSEELLPTGERLSSRRLRTIGIDLGRSSGFYSLAYLFEDPFVNIHGEKRLRPDFLVDVGQRVSFAGAPLYAAIHESIYGGIGGTTTNWSAHRIREEFPGCEENADPRSAEPFYLTGEHIFPWQFDEDPALQPYKAAAEQLATTQWEHSPYDAEVLKEQAAVTAACVYLDDAFVPFELSMDTAHTYRDLRLHVTNRFQHDGIRWDGAGILSTLRDKVLDH | not soluble
MGSDKIHHHHHHMPIKVNMFSSASKVKGQGVGSAYEELIRLLKTHFPKQIDVSINKFTKADISHYHTIDPNFYLSTFSKKRGIKVGYVHFLPETIEGSLNIPQPFRSIFYKYIISFYKRMDHIVVVNPTFIDKLVAYGISRDIITYIPNFVRKNEFYRFTEANRDAVRERLEVNNRFTVLGIGQVQERKGVKDFIKLAENNPDKYFIWAGGFSFGRLTDGYADLKQVVDNPPRNLKFTGIVDRNALVEYYNAADLFLLPSYNELFPMSVLEAFSCGVPVMLRDLELYHSIIKGYYIPTQDYEDMNTQLKLVSEDKERLNKFKQLSDEASEEYSEDHLADIWLDFYSSLTK | not soluble
MSRGPEEVNRLTESTYRNVMEQFNPGLRNLINLGKNYEKAVNAMILAGKAYYDGVAKIGEIATGSPVSTELGHVLIEISSTHKKLNESLDENFKKFHKEIIHELEKKIELDVKYMNATLKRYQTEHKNKLESLEKSQAELKKIRRKSQGSRNALKYEHKEIEYVETVTSRQSEIQKFIADGCKEALLEEKRRFCFLVDKHCGFANHIHYYHLQSAELLNSKLPRWQETCVDAIKVPEKIMNMIEEIKTPASTPVSGTPQASPMIERSNVVRKDYDTLSKCSPKMPPAPSGRAYTSPLIDMFNNPATAAPNSQRVNNSTGTSEDPSLQRSVSVATGLNMMKKQKVKTIFPHTAGSNKTLLSFAQGDVITLLIPEEKDGWLYGEHDVSKARGWFPSSYTKLLEENETEAVTVPTPSPTPVRSISTVNLSENSSVVIPPPDYLECLSMGAAADRRADSARTTSTFKAPASKPETAAPNDANGTAKPPFLSGENPFATVKLRPTVTNDRSAPIIR | soluble
LFPDELIDQLLAQVQGKDAESILGESGLAGQLKKQLAERMLAAELSHHLAAETEQGRAGNHRNGTSAKTVLTPNGELKLDIPRDRQATFEPQLVGKYQRRLPGFDDHVISMYARGMSVREIQGHLLELYGLQVSPDLISTVTDEVLADVEQWQQRPLEAMYPIVYFDALRLKIRDEGTVKNKAVYLALGIRAEGRKEVLGLWIEQTEGAKFWLKVFNELRTCQEFRVLRPVK | not soluble
MSLSAFFAHLHLHSEFSLQDGLIRVKPLMQAVAQAGMPAVALTDQGNLFGAVKFYRAAVNAGVKPIIGAEIRVADADASERPARLVLLCADTQGYRTLTRLLTRGYLEGQQQGVPVVDREWLRGRCAGLIGLSGGRVGDVGRALLSGEPALAARKLEFWREQFGDRYYLELQRTGRPGDEEHVQAAVELATAHGVAVVATNDVCFLRPEDEGHHHHHH | not soluble
MKGGLLVDDEFIHGEERSLTVRKTSLFFAGDGFTVYDCKGSLVFRVDSYGGPNTRDTDEVVLMDAHGRCLLTLRRKRPSLRRRWEGYLGERSDGQKPIFGVRRSSIIGRNSVTVEVYGDYQCSEYLIEGSFGARNCTVVEAETRRKVAEIRRKVDASTNVMLGKDVFSLNVKPGFDGAFAMGLVLVLDQIYGDDLLEVGEEQVHPSAEDL | not soluble
MGSDKIHHHHHHMTATASSSPKLRVDTRGTNELPPHLDENLLTPRFYVTEFKKAAKTELTDAREEFEAMLSEMKADYNCTHFDRKASLDRLQELPQKAKETYESYLVRSVISEFSGFLLFKEISNRLKKEGNRDLGKLFQFLARDEARHAGFLSRALVAEGIEVDLPHLGGKRAATWFPISWVIYSVYLSEKIGYWRYILMDRHLKANPDQAFAPLFDFFEPWCQDENRHGDCFTVMMRCWPGITKGFRGKLLSRFFLWSVFLTHTLTVCERGEFYELLGIDPKEFDEEVIKRTNHTSKNAFPWVFNLDDNKFWDLRNKIIESFRAFVGAKGLTKPVKFVKFATLIFKQFALPMEKTDALRYDKNVNFTGQDILNFWTDK | not soluble
MPIHVDKPDTMQNELIDIVADGLRSNQIYTFRMILKHDYGTHKSEATFQADPAGRIDLKYAKPLRGSYYDADPMGLFLGMKPCEDFAYGGYLRCTPPVPFYYLLELFDSSGTLIDSTYIKKHWMHPKLIRTELEEDFCATLFKPPGDGPFPVVLDISGTGGGIHEHKGAMLASEGFVVLCLAFFQFKYLPQKMEDVDMEYFAKAINYLIDLPFTKNVIGIQGVSFGATIVDLLTTRHGDKIKALVSINGPQVVSDYLFMQENGAPIPHLSHGQVTLEHCQFINGVMCSHRNFQIMTEKLTPETEIPWERIPSDVKIRVIGSVDDLCQPSVHATYYRQRRLKETGHDVEVELVNGGHIMEPPYFPHHELVYAKYQGFYCGYGGEVVLHAKSQEKTWSNTIKFFQKALGNTKKIQDWDRLTVVVPPRKKSKL | not soluble
MNIAAVAGSPTGDMIEIGQHLRVRHFCYQTAKQRGDIGKIIRIAFAEVKFRCDSQIPLQRQTATNVADMFMHAKNFLHYNDHWQWAIALLWSGMVSRHVIPL | not soluble
MVDFYYLPGSSPCRSVIMTAKAVGVELNKKLLNLQAGEHLKPEFLKINPQHTIPTLVDNGFALWESRAIQVYLVEKYGKTDSLYPKCPKKRAVINQRLYFDMGTLYQSFANYYYPQVFAKAPADPEAFKKIEAAFEFLNTFLEGQDYAAGDSLTVADIALVATVSTFEVAKFEISKYANVNRWYENAKKVTPGWEENWAGCLEFKKYFE | soluble
MKNENENEICFIAGVGDSNGYGWGIAKELSKRNVKVIFGVWPPVYNIFIKNLESGKFDKDMIINNDNSKRMQILDVLPLDAGFDNYDDIDEDTKNNKRYNNLKNYSIEEVANLIYNKYGKISMLVHSLANGREVQKSLLDTSRDGYLDAISKSSYSLISLCKHFCKFMNSGGSVVSLTYQASQKVVPGYGGGMSSAKAALESDTRVLAYYLGRKYNIRINTISAGPLKSRAATAINKFNNNQKNNMNSSGETDKQNYSFIDYAIDYSEKYAPLKKKLLSTDVGSVASFLLSKESSAVTGQTIYVDNGLNIMFGPDDLFQSSDS | soluble
MSEKTMGPRQSRPGILTPAQERVAQAIARLGPEISLTDISRMVGGHPNASRQHIKTLENSGYISATQKRGAAGRPAQLYSITPEGLRALAGNATLIAHTSFVRSLSHYIANQPHPEERALALGSQMVRDEGPLPGATKVDKVVNLLEKYGFAPTQAGTEIQLLTCPVLDSAVRHPEVVCTMHRGILNEITGNNTTFILEPFARPGMCVIRTVSPTANPTQT | not soluble
SNPTITRIELSYQDSSIANGTSTTLEVTAIFDNGTNQNITDSTSIVPDSQSVVTIEGNRVRGIASGSSIIKAEYNGLYSEQKITVTPAILNSIQVTSLESGILPKGTNRQFSAIGIFSDGSHQDISNEPLIVWSSSNPDLVRVDDSGLASGINLGTAHIRASFQSKQGAEEMTVGDAVLSQIQVTSNDLNIPLGKKQKLTATGIYSDNSNRDISSSVIWNSSNSTIANIQNNGILETADTGIVTVSASSENIIGSVKLIVTPAALVSISVSPTNSTVAKGLQENFKATGIFTDNSNSDITDQVTWDSSNTDILSISNASDSHGLASTLNQGNVKVTASIGGIQGSTDFKVTQAALTSIEVSPTRTSIAKGLTQKFTAIGIFTDNSKKDITDQVTWNSSSAIVSVSNLDNNKGLGKTNSVGNTTITATLGKVSGNTWFTVVPAV | not soluble
MSLSIFTDLNTSRKWQIDQWLSAVNSHIEKIQQYGHSVVNPTPLLADGFEIKTQSPVVWQFPDGHDAPISNFASQQNWLRLLISMSVITETEKYRHLAFCQSEYFLNRFVDENSGLFYWGGHRFINLDTLASEGPESKSMVHELKHHLPYYEFLHQVNPEKTRHFIQGFWNAHVEDWSCLDLGRHGDYARQRDPDVFLHSRHDVVTPANWPELPLTKGLTFVNAGTDLIYAAFVYARHTGDAHAAAWGKHLYRQYVLARNPETGMPVYQFSSPLQRQPVPADDNQTQSWFGDRAQRQFGPEFGAIAREANVLFRDMRPLLIDNPLAMLDILRHQPDAEILTWVIAGLKNYYQYAYDVNSNSLRPMWNNGQDMTDYCFKRDGYYGKAGTVLKPFPLEGDYLLPLVRAWLLSDDDDLHTLIVTMLSRLEKQGIHQSASPFLLLAITELAHAKQSAQWAEYAWQMAEILFKRYFHHGLFVRSEHHRYVRLDDPFPAILLTLIAACRNKWSEVPAVLTQGGYIHGDYRINGESRVIYDTGIYLPRKINEGHHHHHH | not soluble
